Results as given in the supplement of paper PMC10567573.

B1: RIPK4 (parent)
chain: VSVNAQTLDGRTPLHLAAQRGHYR

Variants of: B1
Test: protein stability index of a GFP-peptide fusion (GPS, HEK-293T) (PSI 1-6); higher = more stable
Conditions: c terminus: a fixed tail appended
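Also: lentivirally expressed fusions sorted by FACS into six bins by GFP to DsRed ratio, PSI derived from sequencing read proportions per bin multiplied by bin number.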

Protein stability index: each site, then its substitutions
V1: T 3.78, I 3.54, H 3.79, E 3.97, S 3.62, L 3.98, Y 3.59, G 3.76, N 4.12, K 3.74, F 3.39, W 3.5, M 4.21, P 3.85, R 4.06, Q 3.99
A5: M 2.77, W 2.83, Y 3.1, S 3.37, P 3.12, V 2.64, D 4.28, I 2.19, E 3.73, C 3.88, G 3.02, F 2.61, K 3.69, H 3.36, N 3.53, L 2.76, T 3.52, R 2.94, Q 3.13
S2: G 3.97, M 2.89, C 2.93, D 4.08, Y 2.82, F 2.57, N 3.73, V 2.22, W 2.3, I 2.18, Q 3.22, L 2.86, E 3.27, A 3.24, R 3.33, T 2.91, K 3.41, H 2.42, P 3.75
T7: I 2.63, N 3.64, L 3.2, F 2.11, G 3.35, Y 2.97, H 3.12, R 3.32, C 2.8, D 3.77, S 3.29, P 3.36, A 3.34, K 3.36, M 2.98, Q 4.04, E 3.94, W 2.32, V 3.23
N4: G 3.3, P 3.42, I 2.44, Q 3.41, H 3.46, M 2.66, W 2.06, T 3.04, Y 3.12, A 3.17, K 3.51, V 2.53, F 2.06, L 2.69, C 3.18, E 3.17, R 3.21, S 2.86, D 3.86
D9: S 3.04, E 3.78, F 2.25, A 3.09, R 3.31, V 2.9, W 2.35, G 3.02, I 2.33, Q 2.92, T 3.22, C 3.14, M 2.62, H 3.15, N 3.33, K 2.79, L 2.81, P 3.49
V3: I 2.67, S 3.97, C 3.12, T 3.53, W 2.69, K 3.6, G 3.9, Q 4.22, M 3.73, H 4.67, A 3.85, D 4.13, L 3.35, R 4.33, E 4.86, N 4.49, Y 2.75, F 2.96, P 3.83
Q6: N 3.03, K 3.21, S 3.78, V 2.68, P 3.96, W 2.49, T 3.44, D 3.93, M 2.87, F 2.22, R 3.02, G 3.13, H 3.52, I 2.69, E 2.95, A 3.43, Y 2.59, C 2.62, L 3.69
L8: T 3.77, M 3.75, Q 4.05, I 3.58, A 3.92, N 3.94, E 4.33, D 3.74, K 3.58, V 3.92, W 3.11, P 3.95, F 3.29, S 3.5, Y 3.07, C 3.33, H 3.73, R 3.37, G 4.26
